Series [1] deals with L-arabinose isomerase from Lactobacillus reuteri DSMZ 17509 (Lactobacillus reuteri). Briefly: SEC; 190 mL Sephacryl S300 column, 50 mM potassium phosphate buffer pH 7.0, 150 mM NaCl; molecular weight marker kit for gel filtration; oligomer size from the apparent mass against the calculated subunit mass.
Series [2] concerns the molecule itself. The description is as above.

As to “L-arabinose isomerase from Lactobacillus reuteri DSMZ 17509 (enzyme)”, in series [1], the stoichiometry N was 6.

B1: D-xylose isomerase from Lactobacillus reuteri DSMZ 17509 (enzyme, UniProt Q5QG16 1-449, looked up)
chain: MADLWNNIDKIEYEGPHKSIKSGLFYQYYNPDEVILGKKMKDWLRFSVAYWHTFDQRLVDPFGDGTAQRPYDKYSDPMDCALAKVDYAFEFYNKLGVDFLCFHDRDLAPEGDTLRETNKNLDRVVDKIVEYQKATGMKVLWNTSNLFTNPRFLEGAGTAPSAEIYAYAAAQLKHSLEVGKRVGSENYVFWGGREGYESLWNTDMKREQSHIAKFFHMAKDYANEIGFDAQMLLEPKPKEPTTHQYDFDAATTINFMCEYGLDKDFKLNLEGNHANLAGHTYQHEIRVAREAGLLGSLDANQGDKLIGWDIDEYPSNLYETTAAMWEVIQNGSIGPRGGLNFDAKPRRTSFKPVDLFYGHIVGMDSFAAGLRVAAAMKEDGFLDDIIKERYSTWDEGLGKSIEDGNENFASLEEKVIDTPQSELLAATHSDHLEEIKDTINHYMIETLAK
B1: the “stoichiometry N” value in series [2] was 4.
